Measurements from the supplement of paper PMC12783771.
± gives the standard deviation of the averaged measurements.

B1: library; numbered along this chain (parent)
chain: MNIQIGELAKRTACPVVTIRFYEQEGLLPPPGRSRGNFRLYGEEHVERLQFIRHCRSLDMPLSDVRTLLSYRKRPDQDCGEVNMLLDEHIRQVESRIGALLELKHHLVELREACSGARPAQSCGILQGLSDCVCDTRGTTAHPSD

Experiments:
[1] = variants of: B1; assay: sfGFP reporter fluorescence (15 h) (µM FITC); higher = higher leak; details: library round: Round 0; ligand: none
How it was run: (§1)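 PCR-made linear PbrR templates (Echo-normalized to 5 nM) were expressed in BL21 Star (DE3) extract (PANOx-SP) with pPbrR-sfGFP reporter plasmid and 30 μg/mL GamS. Reactions were 1 μL, Echo-assembled, with 1 µM lead chloride, 30 µM zinc acetate or no metal, incubated 15 hr at 30 °C. Endpoint sfGFP fluorescence (485/528 nm, Synergy Neo2) was converted to µM FITC via standard curves in 50 mM sodium borate pH 8.5. Up to three biological replicates.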

[2] = variants of: B1; assay: sfGFP reporter fluorescence (15 h) (µM FITC); higher = stronger transcriptional activation; details: library round: Round 0
How it was run: as §1

H89R
sfGFP reporter fluorescence [1]: 0.0685 ± 0.0042
sfGFP reporter fluorescence ([2]; ligand: 1 µM Pb): 0.0936 ± 0.0054
sfGFP reporter fluorescence ([2]; ligand: 30 µM Zn): 0.975 ± 0.017

H89M
sfGFP reporter fluorescence [1]: 0.061 ± 0.0013
sfGFP reporter fluorescence ([2]; ligand: 1 µM Pb): 0.06359 ± 0.00026
sfGFP reporter fluorescence ([2]; ligand: 30 µM Zn): 0.1426 ± 0.00052

H89L
sfGFP reporter fluorescence [1]: 0.059 ± 0.0026
sfGFP reporter fluorescence ([2]; ligand: 1 µM Pb): 0.0553 ± 0.0021
sfGFP reporter fluorescence ([2]; ligand: 30 µM Zn): 0.0649 ± 0.0042

H89T
sfGFP reporter fluorescence [1]: 0.0614 ± 0.00078
sfGFP reporter fluorescence ([2]; ligand: 1 µM Pb): 0.0579 ± 0.0021
sfGFP reporter fluorescence ([2]; ligand: 30 µM Zn): 0.0588 ± 0.0054

H89D
sfGFP reporter fluorescence [1]: 0.0623 ± 0.0021
sfGFP reporter fluorescence ([2]; ligand: 1 µM Pb): 0.0669 ± 0.0044
sfGFP reporter fluorescence ([2]; ligand: 30 µM Zn): 0.08283 ± 0.00052

H89A
sfGFP reporter fluorescence [1]: 0.05992 ± 0.00026
sfGFP reporter fluorescence ([2]; ligand: 1 µM Pb): 0.05699 ± 0.00026
sfGFP reporter fluorescence ([2]; ligand: 30 µM Zn): 0.06725 ± 0.00026

H89S
sfGFP reporter fluorescence [1]: 0.0572 ± 0.001
sfGFP reporter fluorescence ([2]; ligand: 1 µM Pb): 0.0579 ± 0.0031
sfGFP reporter fluorescence ([2]; ligand: 30 µM Zn): 0.0627 ± 0.001

H89Q
sfGFP reporter fluorescence [1]: 0.0645 ± 0.0047
sfGFP reporter fluorescence ([2]; ligand: 1 µM Pb): 0.108 ± 0.0029
sfGFP reporter fluorescence ([2]; ligand: 30 µM Zn): 1.3 ± 0.08

H89P
sfGFP reporter fluorescence [1]: 0.0566 ± 0.0029
sfGFP reporter fluorescence ([2]; ligand: 1 µM Pb): 0.05498 ± 0.00052
sfGFP reporter fluorescence ([2]; ligand: 30 µM Zn): 0.0564

H89K
sfGFP reporter fluorescence [1]: 0.0601 ± 0.0026
sfGFP reporter fluorescence ([2]; ligand: 1 µM Pb): 0.0599 ± 0.0013
sfGFP reporter fluorescence ([2]; ligand: 30 µM Zn): 0.161 ± 0.0036

H89F
sfGFP reporter fluorescence [1]: 0.0581 ± 0.0039
sfGFP reporter fluorescence ([2]; ligand: 1 µM Pb): 0.0566 ± 0.0039
sfGFP reporter fluorescence ([2]; ligand: 30 µM Zn): 0.063 ± 0.0021

H89C
sfGFP reporter fluorescence [1]: 0.0553 ± 0.0015
sfGFP reporter fluorescence ([2]; ligand: 1 µM Pb): 0.0574 ± 0.0039
sfGFP reporter fluorescence ([2]; ligand: 30 µM Zn): 0.0614 ± 0.0034

H89W
sfGFP reporter fluorescence [1]: 0.0607 ± 0.0023
sfGFP reporter fluorescence ([2]; ligand: 1 µM Pb): 0.0585 ± 0.00078
sfGFP reporter fluorescence ([2]; ligand: 30 µM Zn): 0.06084 ± 0.00052

H89E
sfGFP reporter fluorescence [1]: 0.0647 ± 0.0023
sfGFP reporter fluorescence ([2]; ligand: 1 µM Pb): 0.0795 ± 0.0031
sfGFP reporter fluorescence ([2]; ligand: 30 µM Zn): 0.139 ± 0.0023

H89V
sfGFP reporter fluorescence [1]: 0.0592 ± 0.0034
sfGFP reporter fluorescence ([2]; ligand: 1 µM Pb): 0.0575 ± 0.0021
sfGFP reporter fluorescence ([2]; ligand: 30 µM Zn): 0.05681 ± 0.00052

S95A
sfGFP reporter fluorescence [1]: 0.0625 ± 0.0013
sfGFP reporter fluorescence ([2]; ligand: 1 µM Pb): 0.0759 ± 0.0062
sfGFP reporter fluorescence ([2]; ligand: 30 µM Zn): 0.797 ± 0.063

M84A
sfGFP reporter fluorescence [1]: 0.0618 ± 0.0029
sfGFP reporter fluorescence ([2]; ligand: 1 µM Pb): 0.0687 ± 0.0029
sfGFP reporter fluorescence ([2]; ligand: 30 µM Zn): 0.807 ± 0.02

K73A
sfGFP reporter fluorescence [1]: 0.0621 ± 0.0013
sfGFP reporter fluorescence ([2]; ligand: 1 µM Pb): 0.0676 ± 0.007
sfGFP reporter fluorescence ([2]; ligand: 30 µM Zn): 0.42 ± 0.15

I97A
sfGFP reporter fluorescence [1]: 0.0663 ± 0.0021
sfGFP reporter fluorescence ([2]; ligand: 1 µM Pb): 0.133 ± 0.0015
sfGFP reporter fluorescence ([2]; ligand: 30 µM Zn): 1.138 ± 0.007

L85A
sfGFP reporter fluorescence [1]: 0.05864 ± 0.00052
sfGFP reporter fluorescence ([2]; ligand: 1 µM Pb): 0.0559 ± 0.0023
sfGFP reporter fluorescence ([2]; ligand: 30 µM Zn): 0.07183 ± 0.00052

L85K
sfGFP reporter fluorescence [1]: 0.0585 ± 0.0029
sfGFP reporter fluorescence ([2]; ligand: 1 µM Pb): 0.0566 ± 0.00078
sfGFP reporter fluorescence ([2]; ligand: 30 µM Zn): 0.0645 ± 0.001

L85P
sfGFP reporter fluorescence [1]: 0.057 ± 0.0023
sfGFP reporter fluorescence ([2]; ligand: 1 µM Pb): 0.05809 ± 0.00026
sfGFP reporter fluorescence ([2]; ligand: 30 µM Zn): 0.0555 ± 0.0013

L85I
sfGFP reporter fluorescence [1]: 0.0577 ± 0.00078
sfGFP reporter fluorescence ([2]; ligand: 1 µM Pb): 0.06853 ± 0.00052
sfGFP reporter fluorescence ([2]; ligand: 30 µM Zn): 0.6194 ± 0.0057

L85M
sfGFP reporter fluorescence [1]: 0.05754 ± 0.00052
sfGFP reporter fluorescence ([2]; ligand: 1 µM Pb): 0.06945 ± 0.00026
sfGFP reporter fluorescence ([2]; ligand: 30 µM Zn): 0.597 ± 0.017

L85C
sfGFP reporter fluorescence [1]: 0.0607 ± 0.0018
sfGFP reporter fluorescence ([2]; ligand: 1 µM Pb): 0.0577 ± 0.0013
sfGFP reporter fluorescence ([2]; ligand: 30 µM Zn): 0.117 ± 0.0039

L85V
sfGFP reporter fluorescence [1]: 0.0585 ± 0.0018
sfGFP reporter fluorescence ([2]; ligand: 1 µM Pb): 0.0594 ± 0.0026
sfGFP reporter fluorescence ([2]; ligand: 30 µM Zn): 0.1479 ± 0.0013

L85H
sfGFP reporter fluorescence [1]: 0.0603 ± 0.0018
sfGFP reporter fluorescence ([2]; ligand: 1 µM Pb): 0.05827 ± 0.00052
sfGFP reporter fluorescence ([2]; ligand: 30 µM Zn): 0.0629 ± 0.00078

L85T
sfGFP reporter fluorescence [1]: 0.0601 ± 0.0015
sfGFP reporter fluorescence ([2]; ligand: 1 µM Pb): 0.057 ± 0.0013
sfGFP reporter fluorescence ([2]; ligand: 30 µM Zn): 0.1118 ± 0.00052

L85E
sfGFP reporter fluorescence [1]: 0.0605 ± 0.0015
sfGFP reporter fluorescence ([2]; ligand: 1 µM Pb): 0.0586 ± 0.0021
sfGFP reporter fluorescence ([2]; ligand: 30 µM Zn): 0.05662 ± 0.00026

L85Q
sfGFP reporter fluorescence [1]: 0.0586 ± 0.001
sfGFP reporter fluorescence ([2]; ligand: 1 µM Pb): 0.0581 ± 0.00078
sfGFP reporter fluorescence ([2]; ligand: 30 µM Zn): 0.0658 ± 0.0023

L85Y
sfGFP reporter fluorescence [1]: 0.0592 ± 0.0039
sfGFP reporter fluorescence ([2]; ligand: 1 µM Pb): 0.0603 ± 0.00078
sfGFP reporter fluorescence ([2]; ligand: 30 µM Zn): 0.253 ± 0.0096

L85W
sfGFP reporter fluorescence [1]: 0.0618 ± 0.0018
sfGFP reporter fluorescence ([2]; ligand: 1 µM Pb): 0.0597 ± 0.0036
sfGFP reporter fluorescence ([2]; ligand: 30 µM Zn): 0.157 ± 0.013

L85R
sfGFP reporter fluorescence [1]: 0.0596 ± 0.0018
sfGFP reporter fluorescence ([2]; ligand: 1 µM Pb): 0.0577 ± 0.00078
sfGFP reporter fluorescence ([2]; ligand: 30 µM Zn): 0.0652 ± 0.001

L85S
sfGFP reporter fluorescence [1]: 0.059 ± 0.0021
sfGFP reporter fluorescence ([2]; ligand: 1 µM Pb): 0.059 ± 0.0015
sfGFP reporter fluorescence ([2]; ligand: 30 µM Zn): 0.0627

L85D
sfGFP reporter fluorescence [1]: 0.0577 ± 0.0013
sfGFP reporter fluorescence ([2]; ligand: 1 µM Pb): 0.0563 ± 0.0013
sfGFP reporter fluorescence ([2]; ligand: 30 µM Zn): 0.0537 ± 0.0013

L85G
sfGFP reporter fluorescence [1]: 0.0544 ± 0.0023
sfGFP reporter fluorescence ([2]; ligand: 1 µM Pb): 0.0541 ± 0.0013
sfGFP reporter fluorescence ([2]; ligand: 30 µM Zn): 0.0603 ± 0.00078

L85F
sfGFP reporter fluorescence [1]: 0.057 ± 0.0029
sfGFP reporter fluorescence ([2]; ligand: 1 µM Pb): 0.0559 ± 0.0013
sfGFP reporter fluorescence ([2]; ligand: 30 µM Zn): 0.0828 ± 0.0021

L85N
sfGFP reporter fluorescence [1]: 0.0564 ± 0.0021
sfGFP reporter fluorescence ([2]; ligand: 1 µM Pb): 0.0575 ± 0.0015
sfGFP reporter fluorescence ([2]; ligand: 30 µM Zn): 0.0612 ± 0.0015

L86A
sfGFP reporter fluorescence [1]: 0.07 ± 0.0015
sfGFP reporter fluorescence ([2]; ligand: 1 µM Pb): 0.0647 ± 0.0018
sfGFP reporter fluorescence ([2]; ligand: 30 µM Zn): 0.0782 ± 0.0018

R96A
sfGFP reporter fluorescence [1]: 0.0564
sfGFP reporter fluorescence ([2]; ligand: 1 µM Pb): 0.07495 ± 0.00026
sfGFP reporter fluorescence ([2]; ligand: 30 µM Zn): 0.294 ± 0.0083

Q92A
sfGFP reporter fluorescence [1]: 0.0592 ± 0.0013
sfGFP reporter fluorescence ([2]; ligand: 1 µM Pb): 0.063 ± 0.0026
sfGFP reporter fluorescence ([2]; ligand: 30 µM Zn): 0.421 ± 0.042

D87A
sfGFP reporter fluorescence [1]: 0.0596 ± 0.0049
sfGFP reporter fluorescence ([2]; ligand: 1 µM Pb): 0.0652 ± 0.0015
sfGFP reporter fluorescence ([2]; ligand: 30 µM Zn): 0.393 ± 0.011

E88A
sfGFP reporter fluorescence [1]: 0.061 ± 0.0034
sfGFP reporter fluorescence ([2]; ligand: 1 µM Pb): 0.0859 ± 0.0091
sfGFP reporter fluorescence ([2]; ligand: 30 µM Zn): 0.965 ± 0.07

P75A
sfGFP reporter fluorescence [1]: 0.0618 ± 0.0023
sfGFP reporter fluorescence ([2]; ligand: 1 µM Pb): 0.0711 ± 0.01
sfGFP reporter fluorescence ([2]; ligand: 30 µM Zn): 0.519 ± 0.049
